The results in this text go back to US20220185901A1 (Bayer, published 2022).

Experiment [1] has as its target T1, hActivin RIA/ALK-2 Fc Chimera (TPP-17233) (human, UniProt Q04771 23-123).
T1 construct: also called human ALK-2-Fc
T1 sequence: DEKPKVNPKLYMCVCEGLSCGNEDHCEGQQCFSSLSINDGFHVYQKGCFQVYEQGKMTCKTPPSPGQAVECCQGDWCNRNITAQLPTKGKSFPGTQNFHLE
Description: ELISA: human ALK-2-Fc coated at 2 µg/ml, TPP-14719 titrated, detected with anti-human IgG2 (Fc specific) then anti-mouse IgG-HRP; readout Relative Fluorescence Units. As for the experimental part: (§1) Antigens human ALK-1-Fc and human ALK-2-Fc were coated at 2 μg/ml and binding of TPP-14696 and TPP-14719 was detected by anti-human IgG2 (Fc specific) antibody (Sigma 19513) followed by anti-mouse IgG (whole molecule)—HRP (Sigma A9044, 1:40000).
(§2) In order to determine the selectivity for the ALK-1/BMPR-2 receptor complex compared to the ALK-2/BMPR-2 receptor, the specificity of the agonistic antibodies has been evaluated by ELISA (FIG. 9). The antigens human ALK-1-Fc and human ALK-2-Fc were coated at 2 μg/ml and binding of TPP-14696 and TPP-14719 was detected by anti-human IgG2 (Fc specific) antibody (Sigma 19513) followed by anti-mouse IgG (whole molecule)—HRP (Sigma A9044, 1:40000).

Experiment [2] addresses T2, human ALK-1-Fc (TPP-11726) (human).
T2 construct: Used for panning, screening and SPR; also called hALK-1-Fc
The experiment is described as follows: ELISA: human ALK-1-Fc coated at 2 µg/ml, TPP-14719 titrated, detected with anti-human IgG2 (Fc specific) then anti-mouse IgG-HRP; readout Relative Fluorescence Units. As for the experimental part: as §1, §2

Experiment [3] addresses ALK-1/BMPR-2 receptor pair on PathHunter U2OS ALK-1/BMPR-2 dimerization cells (DiscoverX 93-0962C3) (UniProt P37023 22-503; Q13873 27-1038). The experiment is described as follows: cell-based or functional assay.

T2 sequence (chain, as listed by the source limits assumed): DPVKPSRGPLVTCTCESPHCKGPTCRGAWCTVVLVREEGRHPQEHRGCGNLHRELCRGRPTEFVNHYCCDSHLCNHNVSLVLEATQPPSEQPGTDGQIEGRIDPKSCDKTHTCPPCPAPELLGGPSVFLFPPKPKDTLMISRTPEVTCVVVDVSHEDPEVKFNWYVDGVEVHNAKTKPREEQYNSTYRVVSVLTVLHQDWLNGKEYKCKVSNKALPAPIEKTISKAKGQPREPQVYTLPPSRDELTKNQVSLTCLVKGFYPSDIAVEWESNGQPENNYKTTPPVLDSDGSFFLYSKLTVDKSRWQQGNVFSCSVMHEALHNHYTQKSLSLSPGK
ALK-1/BMPR-2 receptor pair on PathHunter U2OS ALK-1/BMPR-2 dimerization cells (DiscoverX 93-0962C3), sequence (P37023 22-503, chain 1 of 2): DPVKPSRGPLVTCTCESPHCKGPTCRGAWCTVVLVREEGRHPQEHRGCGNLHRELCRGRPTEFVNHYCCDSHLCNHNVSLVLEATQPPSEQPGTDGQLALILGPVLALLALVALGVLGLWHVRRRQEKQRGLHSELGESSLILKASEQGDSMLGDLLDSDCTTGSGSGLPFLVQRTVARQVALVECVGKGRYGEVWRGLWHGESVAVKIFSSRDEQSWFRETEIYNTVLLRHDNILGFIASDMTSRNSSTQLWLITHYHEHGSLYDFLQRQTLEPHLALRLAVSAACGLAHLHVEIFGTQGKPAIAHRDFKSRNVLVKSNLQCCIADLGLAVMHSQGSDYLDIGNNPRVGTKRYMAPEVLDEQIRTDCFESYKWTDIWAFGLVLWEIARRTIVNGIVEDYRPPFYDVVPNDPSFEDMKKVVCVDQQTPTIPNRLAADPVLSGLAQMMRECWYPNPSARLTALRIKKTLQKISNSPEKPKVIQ
ALK-1/BMPR-2 receptor pair on PathHunter U2OS ALK-1/BMPR-2 dimerization cells (DiscoverX 93-0962C3), sequence (Q13873 27-1038, chain 2 of 2): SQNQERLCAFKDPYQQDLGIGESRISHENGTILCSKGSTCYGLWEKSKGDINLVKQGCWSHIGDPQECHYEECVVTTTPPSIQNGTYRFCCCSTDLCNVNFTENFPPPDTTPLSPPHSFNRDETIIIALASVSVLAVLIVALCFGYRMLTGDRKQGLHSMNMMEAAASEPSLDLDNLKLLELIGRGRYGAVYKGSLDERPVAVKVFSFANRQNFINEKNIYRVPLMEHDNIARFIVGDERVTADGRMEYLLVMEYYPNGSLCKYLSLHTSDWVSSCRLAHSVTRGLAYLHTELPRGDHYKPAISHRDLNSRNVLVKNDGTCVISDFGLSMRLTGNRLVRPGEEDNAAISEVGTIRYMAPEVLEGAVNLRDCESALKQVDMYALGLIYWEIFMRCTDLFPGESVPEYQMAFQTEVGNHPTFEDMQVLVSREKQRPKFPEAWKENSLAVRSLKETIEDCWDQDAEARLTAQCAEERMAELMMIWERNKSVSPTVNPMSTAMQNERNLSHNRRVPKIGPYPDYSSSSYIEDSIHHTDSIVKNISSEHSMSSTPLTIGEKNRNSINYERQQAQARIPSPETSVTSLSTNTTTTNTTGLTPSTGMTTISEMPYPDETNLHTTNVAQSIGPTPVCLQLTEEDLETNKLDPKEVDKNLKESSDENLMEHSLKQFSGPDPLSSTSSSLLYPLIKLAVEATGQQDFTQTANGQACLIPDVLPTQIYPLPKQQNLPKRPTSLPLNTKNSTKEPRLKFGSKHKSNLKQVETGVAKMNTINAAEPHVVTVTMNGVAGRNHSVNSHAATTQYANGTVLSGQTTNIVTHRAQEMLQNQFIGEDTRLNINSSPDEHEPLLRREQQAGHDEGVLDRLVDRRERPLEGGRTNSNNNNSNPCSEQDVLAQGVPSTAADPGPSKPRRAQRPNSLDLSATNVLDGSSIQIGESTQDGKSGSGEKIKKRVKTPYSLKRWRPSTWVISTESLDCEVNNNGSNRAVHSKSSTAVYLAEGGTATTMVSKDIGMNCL

B1: TPP-14719 (13660-13469-scFv-kih-IgG2_Fc) (bispecific antibody)
chain 1: EVQLLESGGGLVQPGGSLRLSCAASGFTFSSYAMSWVRQAPGKGLEWVANINQDGSEKNYVDSMRGRFTISRDNSKNTLYLQMNSLRAEDTAVYYCAREFDYWGQGTLVTVTSSGGGGSGGGGSGGGGSQSVLAQPPSASGTPGQRVTISCSGSSSNIGSNYVYWYQQLPGTAPKLLIYGNNKRPSGVPDRFSGSKSGTSASLAISGLRSEDEADYYCAAWDDSLNGRVFGGGTKLTVLGGGGSGGGGSGGGGSGVECPPCPAPPVAGPSVFLFPPKPKDTLMISRTPEVTCVVVDVSHEDPEVQFNWYVDGVEVHNAKTKPREEQFNSTFRVVSVLTVVHQDWLNGKEYKCKVSNKGLPAPIEKTISKTKGQPREPQVYTLPPCREEMTKNQVSLWCLVKGFYPSDIAVEWESNGQPENNYKTTPPMLDSDGSFFLYSKLTVDKSRWQQGNVFSCSVMHEALHNHYTQKSLSLSPG
chain 2: EVQLLESGGGLVQPGGSLRLSCAASGFTFSDYYMTWIRQAPGKGLEWVSSISGGSTYYADSRKGRFTISRDNSENTLYLQMNSLRAEDTAVYYCARDFGVAGWFGQYGMDVWGQGTLVTVSSGGGGSGGGGSGGGGSQSVLTQPPSASGTPGQRVTISCTGSSSNIGAGYDVHWYQQLPGTAPKLLIYRSNQRPSGVPDRFSGSKSGTSASLAISGLRSEDEADYYCSSYAGNYNLVFGGGTKLTVLGGGGSGGGGSGGGGSGVECPPCPAPPVAGPSVFLFPPKPKDTLMISRTPEVTCVVVDVSHEDPEVQFNWYVDGVEVHNAKTKPREEQFNSTFRVVSVLTVVHQDWLNGKEYKCKVSNKGLPAPIEKTISKTKGQPREPQVCTLPPSREEMTKNQVSLSCAVKGFYPSDIAVEWESNGQPENNYKTTPPMLDSDGSFFLVSKLTVDKSRWQQGNVFSCSVMHEALHNHYTQKSLSLSPG
notes: scFv-Fc (kih) heterodimer with IgG2 Fc; also called BsAB TPP-14719
Regarding B1, in experiment [1], the binding result is reported as “no binding”. The molecule also had an EC50 in experiment [2] of 0.747 nM. Moreover, the “Agonistic activity in PathHunter U2OS cells EC50” value in experiment [3] came out at 6.9 nM.
